Molecular target: human Toll-like receptor 5 (TLR5) expressed on HEK293 cells (human) (UniProt O60602)
UniProt O60602, sequence (O60602 21-858): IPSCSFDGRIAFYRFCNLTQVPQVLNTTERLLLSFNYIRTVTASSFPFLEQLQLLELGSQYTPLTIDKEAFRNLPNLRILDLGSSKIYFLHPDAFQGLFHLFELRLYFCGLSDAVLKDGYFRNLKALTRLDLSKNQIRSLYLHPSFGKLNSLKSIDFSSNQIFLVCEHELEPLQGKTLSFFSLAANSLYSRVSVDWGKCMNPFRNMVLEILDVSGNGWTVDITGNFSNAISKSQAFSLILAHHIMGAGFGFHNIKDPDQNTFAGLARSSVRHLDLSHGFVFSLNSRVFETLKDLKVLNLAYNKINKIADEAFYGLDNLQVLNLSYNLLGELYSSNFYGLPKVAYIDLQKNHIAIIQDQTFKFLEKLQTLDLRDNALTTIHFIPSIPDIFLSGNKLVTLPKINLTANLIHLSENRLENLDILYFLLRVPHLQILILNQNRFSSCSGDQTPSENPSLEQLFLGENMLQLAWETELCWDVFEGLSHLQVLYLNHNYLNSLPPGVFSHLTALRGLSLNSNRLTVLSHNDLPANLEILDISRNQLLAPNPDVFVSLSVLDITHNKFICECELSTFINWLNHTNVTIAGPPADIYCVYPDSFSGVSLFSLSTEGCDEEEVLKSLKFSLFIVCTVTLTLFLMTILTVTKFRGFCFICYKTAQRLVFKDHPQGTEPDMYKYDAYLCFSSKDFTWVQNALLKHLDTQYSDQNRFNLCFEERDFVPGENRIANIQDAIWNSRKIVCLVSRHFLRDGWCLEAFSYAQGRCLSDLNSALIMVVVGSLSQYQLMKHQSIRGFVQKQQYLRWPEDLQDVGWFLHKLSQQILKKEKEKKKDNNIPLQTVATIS

Substance	EC50 (half maximal induction) of NF-κB luciferase reporter in HEK293/hTLR5 cells, 24 hr stimulation [pM]
recombinant flagellin (rFliC) from Salmonella enterica serovar Typhimurium (from UniProt P06179 1-495) (natural protein)	6.7
recombinant flagellin-E7m fusion protein rFliCE7m (E7m fused at the C-terminus of flagellin) (from UniProt P06179 1-495)	23.7
